Reference: the Human Domainome abundance scans (Beltran et al. 2025)
± gives the uncertainty stated by the source.

assay: abundance fitness (aPCA) (normalised: wild type 0, dead -1); higher = more abundant; growth selection in yeast, the domain comes from the species named; conditions: Homo sapiens

Row | Substance | abundance fitness
1 | Lipoamide acyltransferase component of branched-chain alpha-keto acid dehydrogenase complex, mitochondrial L172S, P11182 | -0.251 ± 0.045
2 | Lipoamide acyltransferase component of branched-chain alpha-keto acid dehydrogenase complex, mitochondrial L172T, P11182 | -0.085 ± 0.1
3 | Lipoamide acyltransferase component of branched-chain alpha-keto acid dehydrogenase complex, mitochondrial L172V, P11182 | -0.107 ± 0.039
4 | Lipoamide acyltransferase component of branched-chain alpha-keto acid dehydrogenase complex, mitochondrial L172W, P11182 | -0.206 ± 0.061
5 | Lipoamide acyltransferase component of branched-chain alpha-keto acid dehydrogenase complex, mitochondrial L172Y, P11182 | -0.139 ± 0.07
6 | Lipoamide acyltransferase component of branched-chain alpha-keto acid dehydrogenase complex, mitochondrial L180C, P11182 | -0.421 ± 0.055
7 | Lipoamide acyltransferase component of branched-chain alpha-keto acid dehydrogenase complex, mitochondrial L180D, P11182 | -0.895 ± 0.16
8 | Lipoamide acyltransferase component of branched-chain alpha-keto acid dehydrogenase complex, mitochondrial L180E, P11182 | -0.438 ± 0.047
9 | Lipoamide acyltransferase component of branched-chain alpha-keto acid dehydrogenase complex, mitochondrial L180F, P11182 | -0.027 ± 0.095
10 | Lipoamide acyltransferase component of branched-chain alpha-keto acid dehydrogenase complex, mitochondrial L180G, P11182 | -0.609 ± 0.041
11 | Lipoamide acyltransferase component of branched-chain alpha-keto acid dehydrogenase complex, mitochondrial L180H, P11182 | -0.938 ± 0.17
12 | Lipoamide acyltransferase component of branched-chain alpha-keto acid dehydrogenase complex, mitochondrial L180I, P11182 | -0.194 ± 0.11
13 | Lipoamide acyltransferase component of branched-chain alpha-keto acid dehydrogenase complex, mitochondrial L180K, P11182 | -0.296 ± 0.2
14 | Lipoamide acyltransferase component of branched-chain alpha-keto acid dehydrogenase complex, mitochondrial L180M, P11182 | 0.008 ± 0.088
15 | Lipoamide acyltransferase component of branched-chain alpha-keto acid dehydrogenase complex, mitochondrial L180P, P11182 | -0.557 ± 0.13
16 | Lipoamide acyltransferase component of branched-chain alpha-keto acid dehydrogenase complex, mitochondrial L180Q, P11182 | -0.403 ± 0.12
17 | Lipoamide acyltransferase component of branched-chain alpha-keto acid dehydrogenase complex, mitochondrial L180R, P11182 | -0.563 ± 0.046
18 | Lipoamide acyltransferase component of branched-chain alpha-keto acid dehydrogenase complex, mitochondrial L180V, P11182 | -0.222 ± 0.039
19 | Lipoamide acyltransferase component of branched-chain alpha-keto acid dehydrogenase complex, mitochondrial L180W, P11182 | -0.56 ± 0.047
20 | Lipoamide acyltransferase component of branched-chain alpha-keto acid dehydrogenase complex, mitochondrial L180Y, P11182 | -0.079 ± 0.1
21 | Lipoamide acyltransferase component of branched-chain alpha-keto acid dehydrogenase complex, mitochondrial L188A, P11182 | -0.494 ± 0.057
22 | Lipoamide acyltransferase component of branched-chain alpha-keto acid dehydrogenase complex, mitochondrial L188C, P11182 | -0.388 ± 0.062
23 | Lipoamide acyltransferase component of branched-chain alpha-keto acid dehydrogenase complex, mitochondrial L188D, P11182 | -0.535 ± 0.071
24 | Lipoamide acyltransferase component of branched-chain alpha-keto acid dehydrogenase complex, mitochondrial L188E, P11182 | -0.391 ± 0.048

Row | Substance | abundance fitness
25 | Lipoamide acyltransferase component of branched-chain alpha-keto acid dehydrogenase complex, mitochondrial L188F, P11182 | 0.116 ± 0.39
26 | Lipoamide acyltransferase component of branched-chain alpha-keto acid dehydrogenase complex, mitochondrial L188G, P11182 | -0.544 ± 0.036
27 | Lipoamide acyltransferase component of branched-chain alpha-keto acid dehydrogenase complex, mitochondrial L188H, P11182 | -0.368 ± 0.094
28 | Lipoamide acyltransferase component of branched-chain alpha-keto acid dehydrogenase complex, mitochondrial L188K, P11182 | -0.578 ± 0.052
29 | Lipoamide acyltransferase component of branched-chain alpha-keto acid dehydrogenase complex, mitochondrial L188M, P11182 | -0.248 ± 0.054
30 | Lipoamide acyltransferase component of branched-chain alpha-keto acid dehydrogenase complex, mitochondrial L188N, P11182 | -0.567 ± 0.095
31 | Lipoamide acyltransferase component of branched-chain alpha-keto acid dehydrogenase complex, mitochondrial L188P, P11182 | -0.412 ± 0.047
32 | Lipoamide acyltransferase component of branched-chain alpha-keto acid dehydrogenase complex, mitochondrial L188R, P11182 | -0.647 ± 0.04
33 | Lipoamide acyltransferase component of branched-chain alpha-keto acid dehydrogenase complex, mitochondrial L188S, P11182 | -0.656 ± 0.059
34 | Lipoamide acyltransferase component of branched-chain alpha-keto acid dehydrogenase complex, mitochondrial L188T, P11182 | -0.519 ± 0.07
35 | Lipoamide acyltransferase component of branched-chain alpha-keto acid dehydrogenase complex, mitochondrial L188W, P11182 | -0.513 ± 0.048
36 | Lipoamide acyltransferase component of branched-chain alpha-keto acid dehydrogenase complex, mitochondrial L201A, P11182 | -0.315 ± 0.041
37 | Lipoamide acyltransferase component of branched-chain alpha-keto acid dehydrogenase complex, mitochondrial L201C, P11182 | -0.243 ± 0.064
38 | Lipoamide acyltransferase component of branched-chain alpha-keto acid dehydrogenase complex, mitochondrial L201D, P11182 | -0.374 ± 0.14
39 | Lipoamide acyltransferase component of branched-chain alpha-keto acid dehydrogenase complex, mitochondrial L201E, P11182 | -0.038 ± 0.042
40 | Lipoamide acyltransferase component of branched-chain alpha-keto acid dehydrogenase complex, mitochondrial L201F, P11182 | -0.319 ± 0.09
41 | Lipoamide acyltransferase component of branched-chain alpha-keto acid dehydrogenase complex, mitochondrial L201G, P11182 | -0.275 ± 0.034
42 | Lipoamide acyltransferase component of branched-chain alpha-keto acid dehydrogenase complex, mitochondrial L201H, P11182 | -0.32 ± 0.07
43 | Lipoamide acyltransferase component of branched-chain alpha-keto acid dehydrogenase complex, mitochondrial L201K, P11182 | -0.256 ± 0.056
44 | Lipoamide acyltransferase component of branched-chain alpha-keto acid dehydrogenase complex, mitochondrial L201M, P11182 | -0.141 ± 0.069
45 | Lipoamide acyltransferase component of branched-chain alpha-keto acid dehydrogenase complex, mitochondrial L201N, P11182 | -0.119 ± 0.093
46 | Lipoamide acyltransferase component of branched-chain alpha-keto acid dehydrogenase complex, mitochondrial L201P, P11182 | -0.602 ± 0.062
47 | Lipoamide acyltransferase component of branched-chain alpha-keto acid dehydrogenase complex, mitochondrial L201Q, P11182 | -0.11 ± 0.049
48 | Lipoamide acyltransferase component of branched-chain alpha-keto acid dehydrogenase complex, mitochondrial L201R, P11182 | -0.209 ± 0.034
